Results on one molecule are retold here after US20240261333A1 (published 2024).

Holding throughout (assay): co-IP, anti-FLAG, N-FLAG B3GNT2 cell lysate, mass spectrometry
One test concerns the target RPL37A (UniProt P61513 1-92). On the procedure: (§1) Cells were plated in 10-cm cell culture dishes and grown to 60-80% confluency. For each condition, two biological replicates were harvested for co-IP. Cells were washed with PBS and 4 mL of lysis buffer (20 mM HEPES, 1% Triton X-100, 150 mM NaCl, 1 mM EDTA, and 10% glycerol) containing protease inhibitor cocktail was added. Cells were scraped and lysate was incubated at 4° C. under rotary agitation for 1 h. Lysate was centrifuged at 14,000×g for 10 min at 4° C. Supernatant was transferred to a new tube and an aliquot was taken as the input. […] For Western blots, 10 μg/mL Chicken Anti-FLAG (Aves labs ET-DY100) and IgY control (R&D Systems AB-101-C) antibodies were biotinylated (Thermo Fisher Scientific 90407) and added to the respective conditions. Lysates with antibodies were incubated at 4° C. under rotary agitation overnight. For each mL of lysate, 50 μL of Pierce Protein A/G Magnetic Beads (Mass spectrometry; Thermo Fisher Scientific 88803) or Pierce Streptavidin Magnetic Beads (Western blot; Thermo Fisher Scientific 88817) was washed twice with lysis buffer. Lysates with antibodies were added to the beads and incubated at 4° C. under rotary agitation for 4 h. Beads were washed with lysis buffer 3 times and resuspended in lysis buffer for storage.
(§2) Magnetic beads were resuspended in 100 mM Tris pH 7.8, reduced, alkylated and digested with trypsin at 37° ° C. overnight. This solution was subjected to solid phase extraction to concentrate the peptides and remove unwanted reagents followed by injection onto a Shimadzu HPLC with fraction collector. Eight fractions were collected and after concentration were injected on a Waters NanoAcquity HPLC equipped with a self-packed Aeris 3 μm C18 analytical column 0.075 mm by 20 cm, (Phenomenex). Peptides were eluted using standard reverse-phase gradients. The effluent from the column was analyzed using a Thermo Orbitrap Elite mass spectrometer (nanospray configuration) operated in a data dependent manner for 54 minutes. The resulting fragmentation spectra were correlated against the known database using Proteome Discover 1.4 (Thermo Fisher Scientific).

A further test concerns the target T1, NCCRP1 (UniProt Q6ZVX7 1-275).
T1 construct: also called NP_001001414.1
T1 sequence (looked up): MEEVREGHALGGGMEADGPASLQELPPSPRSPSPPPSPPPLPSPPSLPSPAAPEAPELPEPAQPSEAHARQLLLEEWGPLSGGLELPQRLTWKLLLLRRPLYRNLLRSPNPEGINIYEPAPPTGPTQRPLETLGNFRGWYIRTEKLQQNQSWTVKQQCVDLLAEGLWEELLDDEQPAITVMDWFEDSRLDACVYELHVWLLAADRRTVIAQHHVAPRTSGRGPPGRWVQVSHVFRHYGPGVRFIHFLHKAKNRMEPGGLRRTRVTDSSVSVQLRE
As to the method: as §1, §2

A further test addresses T2, EIF4G1 (UniProt Q04637-3 1-1559, limits assumed).
T2 construct: also called NP_001278086.1
On the procedure:
as §1, §2

In the next test the target is RPL5 (UniProt P46777 2-297). As to the method: as §1, §2
The target of another test is RPS2 (UniProt P15880 2-293). On the procedure:
as §1, §2

A further test deals with RPS16 (UniProt P62249 2-146). On the procedure:
as §1, §2

A further test has as its target T3, DEFA3 (UniProt P59666 65-94, limits assumed).
T3 construct: also called NP_005208.1 (+1)
As to the method: as §1, §2

The target of a further test is T4, DDX20 (UniProt Q9UHI6 1-824).
T4 construct: also called NP_009135.4
T4 sequence (looked up): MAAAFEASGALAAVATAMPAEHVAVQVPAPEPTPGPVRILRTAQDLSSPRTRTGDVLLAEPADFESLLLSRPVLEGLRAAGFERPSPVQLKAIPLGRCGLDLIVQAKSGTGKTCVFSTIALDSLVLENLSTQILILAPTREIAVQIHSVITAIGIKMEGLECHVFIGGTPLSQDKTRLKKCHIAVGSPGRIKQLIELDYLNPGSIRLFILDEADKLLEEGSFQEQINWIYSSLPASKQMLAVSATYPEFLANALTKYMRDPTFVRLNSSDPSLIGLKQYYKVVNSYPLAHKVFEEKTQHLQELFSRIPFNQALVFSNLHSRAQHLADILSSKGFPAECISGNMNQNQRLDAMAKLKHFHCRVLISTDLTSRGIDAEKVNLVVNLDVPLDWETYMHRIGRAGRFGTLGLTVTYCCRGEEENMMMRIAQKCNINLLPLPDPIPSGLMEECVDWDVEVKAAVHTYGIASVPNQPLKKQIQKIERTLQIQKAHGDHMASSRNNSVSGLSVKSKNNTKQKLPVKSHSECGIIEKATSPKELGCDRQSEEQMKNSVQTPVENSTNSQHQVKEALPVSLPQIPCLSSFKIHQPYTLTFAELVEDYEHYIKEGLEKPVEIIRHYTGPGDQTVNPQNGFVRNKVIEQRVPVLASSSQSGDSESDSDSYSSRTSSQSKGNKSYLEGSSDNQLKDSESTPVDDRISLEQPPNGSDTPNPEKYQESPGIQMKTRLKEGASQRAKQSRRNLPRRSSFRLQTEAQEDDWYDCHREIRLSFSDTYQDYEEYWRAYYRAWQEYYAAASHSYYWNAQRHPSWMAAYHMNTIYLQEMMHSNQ
As to the method:
as §1, §2

Another test deals with RPS13 (UniProt P62277 2-151). As to the method:
as §1, §2

T3 sequence (P59666 65-94 limits assumed): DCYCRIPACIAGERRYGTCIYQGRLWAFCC
T2 sequence (Q04637 41-1599 limits assumed): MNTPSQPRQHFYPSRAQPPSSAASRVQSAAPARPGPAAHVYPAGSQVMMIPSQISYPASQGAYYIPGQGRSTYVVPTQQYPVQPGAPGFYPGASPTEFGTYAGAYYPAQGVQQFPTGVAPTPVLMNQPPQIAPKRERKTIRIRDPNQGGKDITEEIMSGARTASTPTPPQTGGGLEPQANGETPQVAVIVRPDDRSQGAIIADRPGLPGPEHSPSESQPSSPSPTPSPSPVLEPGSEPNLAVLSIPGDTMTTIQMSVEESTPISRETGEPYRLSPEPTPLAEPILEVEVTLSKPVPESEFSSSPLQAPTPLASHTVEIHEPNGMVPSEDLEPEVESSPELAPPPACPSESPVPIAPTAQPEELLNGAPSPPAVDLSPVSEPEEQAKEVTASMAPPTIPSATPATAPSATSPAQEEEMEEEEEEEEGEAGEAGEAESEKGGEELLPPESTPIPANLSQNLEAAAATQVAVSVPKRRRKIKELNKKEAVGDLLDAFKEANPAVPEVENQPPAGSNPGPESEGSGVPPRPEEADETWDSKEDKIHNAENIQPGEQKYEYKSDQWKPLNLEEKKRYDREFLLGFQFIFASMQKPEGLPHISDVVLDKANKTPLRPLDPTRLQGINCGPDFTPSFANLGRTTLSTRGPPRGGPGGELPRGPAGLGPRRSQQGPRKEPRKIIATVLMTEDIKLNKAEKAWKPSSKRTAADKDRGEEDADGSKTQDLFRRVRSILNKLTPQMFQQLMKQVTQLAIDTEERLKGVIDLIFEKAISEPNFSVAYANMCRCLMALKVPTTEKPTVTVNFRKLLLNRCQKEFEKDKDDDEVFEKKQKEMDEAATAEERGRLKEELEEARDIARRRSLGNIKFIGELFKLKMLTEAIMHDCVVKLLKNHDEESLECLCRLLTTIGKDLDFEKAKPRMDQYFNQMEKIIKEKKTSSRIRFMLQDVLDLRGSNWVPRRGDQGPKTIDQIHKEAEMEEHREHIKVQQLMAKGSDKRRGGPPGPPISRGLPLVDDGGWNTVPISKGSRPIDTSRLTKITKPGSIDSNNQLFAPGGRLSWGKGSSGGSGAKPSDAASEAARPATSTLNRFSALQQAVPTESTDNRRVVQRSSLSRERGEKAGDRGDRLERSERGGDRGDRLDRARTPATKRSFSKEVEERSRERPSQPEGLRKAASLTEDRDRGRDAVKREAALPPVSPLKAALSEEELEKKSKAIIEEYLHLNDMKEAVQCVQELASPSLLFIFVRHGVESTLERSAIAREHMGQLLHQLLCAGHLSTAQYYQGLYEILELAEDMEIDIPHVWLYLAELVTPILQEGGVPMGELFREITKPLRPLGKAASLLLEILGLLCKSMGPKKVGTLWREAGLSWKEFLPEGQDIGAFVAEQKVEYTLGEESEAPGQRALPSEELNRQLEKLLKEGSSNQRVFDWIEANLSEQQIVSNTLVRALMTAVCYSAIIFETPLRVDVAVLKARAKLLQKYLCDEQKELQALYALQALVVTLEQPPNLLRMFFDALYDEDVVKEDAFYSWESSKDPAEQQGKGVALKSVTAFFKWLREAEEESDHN

B1: N-terminal FLAG tagged B3GNT2 (enzyme, human, UniProt Q9NY97 1-397, looked up)
chain: MSVGRRRIKLLGILMMANVFIYFIMEVSKSSSQEKNGKGEVIIPKEKFWKISTPPEAYWNREQEKLNRQYNPILSMLTNQTGEAGRLSNISHLNYCEPDLRVTSVVTGFNNLPDRFKDFLLYLRCRNYSLLIDQPDKCAKKPFLLLAIKSLTPHFARRQAIRESWGQESNAGNQTVVRVFLLGQTPPEDNHPDLSDMLKFESEKHQDILMWNYRDTFFNLSLKEVLFLRWVSTSCPDTEFVFKGDDDVFVNTHHILNYLNSLSKTKAKDLFIGDVIHNAGPHRDKKLKYYIPEVVYSGLYPPYAGGGGFLYSGHLALRLYHITDQVHLYPIDDVYTGMCLQKLGLVPEKHKGFRTFDIEEKNKNNICSYVDLMLVHSRKPQEMIDIWSQLQSAHLKC
notes: Bait of the co-IP; pulled down with mouse anti-FLAG from cell lysate; also called N-FLAG B3GNT2; N-term FLAG; not shown: FLAG tag at the N-terminus
Consider B1, for which the “co-IP mass spectrometry count” value with RPL37A amounted to 6; in the test with NCCRP1, 4; with EIF4G1 it was 2; with RPL5, 0; with RPS2, 13; in the test with RPS16 it was 9. Besides, the “co-IP mass spectrometry count” value with DEFA3 is 5; with DDX20 it was 0; with RPS13, 3.
